Reference: patent US20260274985A1 (MYTHIC THERAPEUTICS, published 2026)

Columns and labels:
[1] = biological target: T1, TROP2 on TROP2-positive NCI-H1975 cells (human, UniProt P09758 27-323); experiment: binding to NCI-H1975 cells at pH 6.4, maximal MFI
T1 construct: Endogenous TROP2 of the human NCI-H1975 cell line; also called TACSTD2
T1 sequence: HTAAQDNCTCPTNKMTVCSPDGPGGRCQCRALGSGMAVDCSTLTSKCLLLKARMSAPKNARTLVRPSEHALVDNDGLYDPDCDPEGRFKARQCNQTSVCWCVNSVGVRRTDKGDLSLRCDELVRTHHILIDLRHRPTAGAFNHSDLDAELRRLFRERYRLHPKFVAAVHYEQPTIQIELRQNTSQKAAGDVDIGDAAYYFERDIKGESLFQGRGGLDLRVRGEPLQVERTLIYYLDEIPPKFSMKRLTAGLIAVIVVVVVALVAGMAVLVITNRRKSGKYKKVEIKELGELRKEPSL

[2] = biological target: T1, TROP2 on TROP2-positive NCI-H1975 cells; experiment: cell-based or functional assay
[3] = biological target: T1, TROP2 on TROP2-positive NCI-H1975 cells; experiment: cell-based or functional assay; remark: listed apart in the source

Binder	Max MFI (@ pH 6.4)-H1975 [1]	Cytotox Fold over datopotamab (FOD) [2]	FOW H1975 (10 nM) [3]
MYT11614 (antibody, human IgG1, V domains shown, Human IgG1 heavy chain constant domain and Kappa light chain constant domain; also called Sacituzumab LC variant) VH: QVQLQQSGSELKKPGASVKVSCKASGYTFTNYGMNWVKQAPGQGLKWMGWINTYTGEPTYTDDFKGRFAFSLDTSVSTAYLQISSLKADDTAVYFCARGGFGSSYWYFDVWGQGSLVTVSS VL: DIQLTQSPSSLSASVGDRVSITCKASQDVHIAVAWYQQKPGKAPKLLIYSASYRYTGVPDRFSGSGSGTDFTLTISSLQPEDFAVYYCQQHYITPLTFGAGTKVEIK	19400 MFI	1.35 fold over datopotamab	–
MYT13369 (antibody, human IgG1, V domains shown, also called sacituzumab HC-LC pairing variant) VH: QVQLQQSGSELKKPGASVKVSCKASGYTFTNYGMNWVKQAPGQGLKWMGWINTYTGEPTYTHDFKGRFAFSLDTSVSTAYLQISSLKADDTAVYFCARGGFGSSYWYFDVWGQGSLVTVSS VL: DIQLTQSPSSLSASVGDRVSITCKASQDVHIAHAWYQQKPGKAPKLLIYSASYRYTGVPDRFSGSGSGTDFTLTISSLQPEDFAVYYCQQHYITPLTFGAGTKVEIK	17100 MFI	1.33 fold over datopotamab	1.44 fold over parent antibody
MYT13370 (antibody, human IgG1, V domains shown, also called sacituzumab HC-LC pairing variant; Sacituzumab pH variant) VH: QVQLQQSGSELKKPGASVKVSCKASGYTFTNYGMNWVKQAPGQGLKWMGWINTYTGEPTYTDHFKGRFAFSLDTSVSTAYLQISSLKADDTAVYFCARGGFGSSYWYFDVWGQGSLVTVSS VL: DIQLTQSPSSLSASVGDRVSITCKASQDVHIAHAWYQQKPGKAPKLLIYSASYRYTGVPDRFSGSGSGTDFTLTISSLQPEDFAVYYCQQHYITPLTFGAGTKVEIK	13400 MFI	1.28 fold over datopotamab	1.43 fold over parent antibody
MYT13427 (antibody, human IgG1, V domains shown, also called sacituzumab HC-LC pairing variant; Sacituzumab pH variant) VH: QVQLQQSGSELKKPGASVKVSCKASGYTFTNYGMNWVKQAPGQGLKWMGWINTYTGEPTYTDDHKGRFAFSLDTSVSTAYLQISSLKADDTAVYFCARGGFGSSYWYFDVWGQGSLVTVSS VL: DIQLTQSPSSLSASVGDRVSITCKASQDVHIAVAWYQQKPGKAPKLLIYSHSYRYTGVPDRFSGSGSGTDFTLTISSLQPEDFAVYYCQQHYHTPLTFGAGTKVEIK	6110 MFI	1.19 fold over datopotamab	1.56 fold over parent antibody
MYT13428 (antibody, human IgG1, V domains shown, also called sacituzumab HC-LC pairing variant) VH: QVQLQQSGSELKKPGASVKVSCKASGYTFTNYGMNWVKQAPGQGLKWMGWINTYTGEPTYTDDFHGRFAFSLDTSVSTAYLQISSLKADDTAVYFCARGGFGSSYWYFDVWGQGSLVTVSS VL: DIQLTQSPSSLSASVGDRVSITCKASQDVHIAVAWYQQKPGKAPKLLIYSHSYRYTGVPDRFSGSGSGTDFTLTISSLQPEDFAVYYCQQHYHTPLTFGAGTKVEIK	6720 MFI	1.18 fold over datopotamab	1.55 fold over parent antibody
MYT11670 (antibody, human IgG1, V domains shown, Human IgG1 heavy chain constant domain and Kappa light chain constant domain; also called Datopotamab pH variant) VH: QVQLVQSGAEVKKPGASVKVSCKASGYTFTTAGMQWVRQAPGQGLEWMGWINTHSGVPKYAEDFKGRVTISADTSTSTAYLQLSSLKSEDTAVYYCARSGFGSHYWYFDVWGQGTLVTVSS VL: DIQMTQSPSSLSASVGDRVTITCKASQDVSTAVAWYQQKPGKAPKLLIYSASYRYTGVPSRFSGSGSGTDFTLTISSLQPEDFAVYYCQQHYITPLTFGQGTKLEIK	20000 MFI	1.41 fold over datopotamab	–
MYT11704 (antibody, human IgG1, V domains shown, Human IgG1 heavy chain constant domain and Kappa light chain constant domain; also called hu7E6SVG WT; hu7E6SVG) VH: QVQLQESGPGLVKPSETLSLTCTVSGGSISSYGVHWIRQPPGKGLEWIGVIWTSGVTDYNSALMGRVTISVDTSKNQFSLKLSSVTAADTAVYYCARDGDYDRYTMDYWGQGTLVTVSS VL: DIVMTQSPDSLAVSLGERATINCRASKSVSTSGYSYMHWYQQKPGQPPKLLIYLASNLESGVPDRFSGSGSGTDFTLTISSLQAEDVAVYYCQHSRELPYTFGQGTKLEIK	31500 MFI	1.22 fold over datopotamab	–
MYT12459 (antibody, human IgG1, V domains shown, Human IgG1 heavy chain constant domain and Kappa light chain constant domain; also called hu7E6SVG pH variant) VH: QVQLQESGPGLVKPSETLSLTCTVSGGSISSYGVHWIRQPPGKGLEWIGVIWTSGVTDYNSALMGRVTISVDTSKNQFSLKLSSVTAADTAVYYCARDGDYDRYTMDYWGQGTLVTVSS VL: DIVMTQSPDSLAVSLGERATINCRASKSVSTSGYSYMHWYQQKPGQPPKLLIYLASNLHSGVPDRFSGSGSGTDFTLTISSLQAEDVAVYYCHHSRHLPYTFGQGTKLEIK	18700 MFI	1.35 fold over datopotamab	–
